A value given as a limit tells only on which side of the number the result lay.

Assay [1] addresses intact human Factor IX (human) (UniProt P00740). The assay is described as follows: cell-based or functional assay.
For assay [2], the target named is Factor IXα (human) (UniProt P00740). The assay can be described thus: ELISA affinity determination (Kim et al.).
Assay [3] has as its target intact human Factor IX (human) (UniProt P00740). The assay can be described thus: ELISA affinity determination (Kim et al.). In general terms: In an ELISA, binding on a coated surface is turned into a signal by an enzyme label.
For assay [4], the target named is Factor II (UniProt P00734). The assay is described as follows: affinity chromatography on CLB-FIX D4-Sepharose; 73 ml.
Assay [5] concerns the target Factor X (UniProt P00742). The description is as above.
Assay [6] has as its target Factor II (UniProt P00734). The assay can be described thus: affinity chromatography on CLB-FIX D4-Sepharose; 440 ml.
In assay [7] the target is Factor X (UniProt P00742). Described as above.
In assay [8] the target is Factor IXaβ (human) (UniProt P00740). The assay can be described thus: CLB-FIX D4 affinity chromatography, Factor IXα mixture applied.
The target in assay [9] is intact human Factor IX (human) (UniProt P00740). The assay is described as above.
Assay [10] has the same target. The assay can be described thus: CLB-FIX D4 affinity chromatography, purified Factor IX applied.
The target of assay [11] is Factor IXaβ (human) (UniProt P00740). The assay can be described thus: CLB-FIX D4 affinity chromatography, Factor IXaβ mixture applied.
The target of assay [12] is intact human Factor IX (human) (UniProt P00740). The assay is described as above.
Assay [13] shares this target. The assay is described as follows: affinity chromatography on CLB-FIX D4-Sepharose, clotting activity; 73 ml.
The target is the same in assay [14]. The assay is described as follows: affinity chromatography on CLB-FIX D4-Sepharose, clotting activity; 440 ml.
For assay [15] the target is unchanged. The assay is described as follows: affinity chromatography of prothrombin complex concentrate, elution with 2 M KSCN.

UniProt P00742, sequence (P00742 41-488 limits assumed): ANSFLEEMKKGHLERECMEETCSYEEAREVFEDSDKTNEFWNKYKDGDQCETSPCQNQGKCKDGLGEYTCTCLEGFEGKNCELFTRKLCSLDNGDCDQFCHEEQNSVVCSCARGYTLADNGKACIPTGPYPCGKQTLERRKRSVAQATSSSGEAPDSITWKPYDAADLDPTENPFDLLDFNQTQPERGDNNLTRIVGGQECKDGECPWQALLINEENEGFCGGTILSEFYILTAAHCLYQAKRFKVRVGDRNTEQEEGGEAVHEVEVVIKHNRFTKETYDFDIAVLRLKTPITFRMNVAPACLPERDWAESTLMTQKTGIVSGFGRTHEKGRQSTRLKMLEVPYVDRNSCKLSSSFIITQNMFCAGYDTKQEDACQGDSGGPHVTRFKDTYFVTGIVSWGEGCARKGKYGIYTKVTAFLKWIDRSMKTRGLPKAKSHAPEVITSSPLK

In the case of monoclonal antibody CLB-FIX D4, in [1], the Factor IX clotting activity (one stage coagulation assay), residual activity after incubation with antibody was greater than 90%. Moreover, in assay [2], the Kd – broadly, the equilibrium constant for the complex coming apart – is 300 pM and the fold alteration of affinity (Factor IXα against intact Factor IX) was greater than 4 fold. In assay [3], the dissociation constant Kd amounted to 1200 pM. The FII in eluate (U/ml) in assay [4] is less than 0.008 U/ml. Also, in assay [5], the FX in eluate (U/ml) is less than 0.003 U/ml. The substance further registered an FII in flow through (U/ml) in assay [6] of 49.7 U/ml. Moreover, the FX in flow through (U/ml) in assay [7] was determined as 51 U/ml. In assay [8], the FIXaβ eluted was less than 0.001 µg and the FIXaβ unbound amounted to 7 µg. In [9], the Intact FIX eluted came out at 85 µg. In [10], this substance gave an Intact FIX eluted of 588 µg, an Intact FIX unbound of 23 µg, a Protein eluted of 580 µg and a Protein unbound of 20 µg. In [11], the FIXaβ eluted was less than 0.001 µg and the FIXaβ unbound was 550 µg. Further, in [12], the Intact FIX eluted amounted to 50 µg. In [13], this substance registered an FIX in eluate (U/ml) of 98.7 U/ml. In [14], this substance yielded an FIX in flow through (U/ml) of 10.4 U/ml. Besides, the Factor IX activity recovered in the eluate in [15] came to 67%.

The record behind these values is patent publication USRE38202.
